One data set deals with T1, Myb2 (Giardia lamblia, UniProt Q8ISM2 1-530).
T1 sequence: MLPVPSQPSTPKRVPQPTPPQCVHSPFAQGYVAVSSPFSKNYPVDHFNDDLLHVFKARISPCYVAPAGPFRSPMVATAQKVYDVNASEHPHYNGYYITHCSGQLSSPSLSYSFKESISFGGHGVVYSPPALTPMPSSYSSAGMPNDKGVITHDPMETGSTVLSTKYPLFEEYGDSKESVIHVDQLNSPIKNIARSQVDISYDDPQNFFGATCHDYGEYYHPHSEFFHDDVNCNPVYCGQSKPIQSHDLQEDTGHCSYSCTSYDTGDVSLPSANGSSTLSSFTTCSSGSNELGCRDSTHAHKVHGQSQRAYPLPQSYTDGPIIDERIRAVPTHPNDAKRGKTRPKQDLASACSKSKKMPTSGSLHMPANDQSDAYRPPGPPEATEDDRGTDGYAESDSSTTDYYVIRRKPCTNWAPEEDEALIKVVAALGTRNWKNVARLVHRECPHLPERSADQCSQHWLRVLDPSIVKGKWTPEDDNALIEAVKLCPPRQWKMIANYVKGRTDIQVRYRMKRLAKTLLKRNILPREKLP
The experiment in a line: EMSA; EMSA: 0.02 pmol 5'-labeled probe, 5 ng protein, 20 ul, 0.5 ug poly(dI-dC), 15 min, room temperature, 6% acrylamide gel; buffer, salt and pH only by citation. As to conditions: protein: recombinant. Background: In EMSA bound probe runs differently from free probe, usually more slowly.

The target in data set [1] is T2, Topo IIC (Giardia lamblia, UniProt E2RU90 489-1491).
T2 sequence: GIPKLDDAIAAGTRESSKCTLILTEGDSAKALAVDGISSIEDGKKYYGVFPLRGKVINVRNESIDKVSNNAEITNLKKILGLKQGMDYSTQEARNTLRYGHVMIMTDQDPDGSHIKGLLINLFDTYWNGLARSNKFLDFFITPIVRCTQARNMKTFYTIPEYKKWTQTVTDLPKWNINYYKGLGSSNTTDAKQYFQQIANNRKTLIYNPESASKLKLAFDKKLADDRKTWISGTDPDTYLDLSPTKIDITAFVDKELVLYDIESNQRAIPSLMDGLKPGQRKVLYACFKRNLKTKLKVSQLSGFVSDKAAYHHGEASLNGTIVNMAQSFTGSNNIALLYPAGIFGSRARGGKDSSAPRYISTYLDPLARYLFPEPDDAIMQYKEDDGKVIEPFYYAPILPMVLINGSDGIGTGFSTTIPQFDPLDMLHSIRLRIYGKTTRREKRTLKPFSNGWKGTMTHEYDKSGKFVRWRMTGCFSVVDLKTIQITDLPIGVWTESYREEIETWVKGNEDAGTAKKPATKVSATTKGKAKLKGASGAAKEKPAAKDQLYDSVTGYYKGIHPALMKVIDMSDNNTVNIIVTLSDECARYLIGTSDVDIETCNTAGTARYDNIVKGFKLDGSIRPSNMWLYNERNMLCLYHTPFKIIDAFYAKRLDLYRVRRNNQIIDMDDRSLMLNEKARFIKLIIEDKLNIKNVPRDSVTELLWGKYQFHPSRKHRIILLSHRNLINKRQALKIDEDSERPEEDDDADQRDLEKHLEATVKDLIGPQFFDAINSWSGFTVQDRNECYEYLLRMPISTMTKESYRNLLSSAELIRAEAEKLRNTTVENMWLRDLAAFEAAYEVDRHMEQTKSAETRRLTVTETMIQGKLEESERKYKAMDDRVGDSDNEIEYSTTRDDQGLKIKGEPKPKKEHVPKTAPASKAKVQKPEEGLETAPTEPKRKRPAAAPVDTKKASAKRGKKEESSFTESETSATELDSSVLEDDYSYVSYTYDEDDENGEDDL
Description: competition; 200-fold excess vs labeled IIBS; EMSA: 0.02 pmol 5'-labeled probe, 5 ng protein, 20 ul, 0.5 ug poly(dI-dC), 15 min, room temperature, 6% acrylamide gel; buffer, salt and pH only by citation. As to conditions: protein: recombinant; tags: C-terminal V5-His; chain copies: 2.

Data set [2] addresses T2, Topo IIC. The experiment in a line: EMSA; EMSA: 0.02 pmol 5'-labeled probe, 5 ng protein, 20 ul, 0.5 ug poly(dI-dC), 15 min, room temperature, 6% acrylamide gel; buffer, salt and pH only by citation. As to conditions: protein: recombinant; tags: C-terminal V5-His; chain copies: 2.
Substrate in data set [3]: Nc1ncnc2c1ncn2[C@@H]1O[C@H](COP(=O)(O)OP(=O)(O)OP(=O)(O)O)[C@@H](O)[C@H]1O
The experiment in a line: coupled pyruvate kinase/lactate dehydrogenase ATPase assay (NADH, A340), Lineweaver-Burk. The conditions noted are these: without DNA, 37 °C, 8 ng Topo II. It counts as biochemical, Giardia duodenalis.

The source of these data is publication PMC3656124, “DNA Topoisomerase II Is Involved in Regulation of Cyst Wall Protein Genes and Differentiation in Giardia lamblia” (PLoS Neglected Tropical Diseases, 2013).

B1: topo II-85/-40 (dsDNA)
DNA 1: TGTAAATCAATATTATCGTCCTACAGCTGCTAGCTTGGTGACAGGA
DNA 2: TCCTGTCACCAAGCTAGCAGCTGTAGGACGATAATATTGATTTACA
In the case of B1, in the data set with Myb2 (label: 5'-32P), the binding result was “binds”.

B2: poly(A) with TC insertion (dsDNA)
DNA 1: AAAAAAAAAAATCAAAAAAAAAA
DNA 2: TTTTTTTTTTGATTTTTTTTTTT
Take B2: the binding result in the data set with Topo IIC [1] is on record as “binds”.

B3: cwp2-30/+8 (dsDNA)
DNA 1: CAGCAGCTCAACAGTGGCTGGGAAAATAAAATGATCGC
DNA 2: GCGATCATTTTATTTTCCCAGCCACTGTTGAGCTGCTG
With B3, the binding result in the data set with Topo IIC [1] is “binds”.

B4: 18S-60/-31 (dsDNA)
DNA 1: CCGTGCCAGGCGGCGGCCCCCGCGCAGGGA
DNA 2: TCCCTGCGCGGGGGCCGCCGCCTGGCACGG
In the case of B4, the binding result with Topo IIC [2] is on record as “no binding”.

B5: 18S-30/-1 (dsDNA)
DNA 1: GGCGCCCGGCCCGCGGCGCCCGCGCCCGGC
DNA 2: GCCGGGCGCGGGCGCCGCGGGCCGGGCGCC
As for B5, the binding result with Topo IIC [2] is “no binding”.

B6: cwp1-45/-1 (dsDNA)
DNA 1: GTTTACAACTCTCAGATCAAGAAACACAGAAATAAAATATCAGGG
DNA 2: CCCTGATATTTTATTTCTGTGTTTCTTGATCTGAGAGTTGTAAAC
Turning to B6, the binding result in the data set with Topo IIC [2] was “binds”.

B7: poly(A) with TT insertion (dsDNA)
DNA 1: AAAAAAAAAAATTAAAAAAAAAA
DNA 2: TTTTTTTTTTAATTTTTTTTTTT
In the case of B7, the binding result with Topo IIC [1] is “binds”.

B8: cwp3-30/+10 (dsDNA)
DNA 1: GTCTTTCCCAAAAAATAAGTTACTACTGATATGTTTTCTC
DNA 2: GAGAAAACATATCAGTAGTAACTTATTTTTTGGGAAAGAC
In the case of B8, in the data set with Topo IIC [1], the binding result is recorded as “binds”.

B9: ran-51/-20 (dsDNA)
DNA 1: TAAAATAAATTAAATCGAAATTAAAACTTTAA
DNA 2: TTAAAGTTTTAATTTCGATTTAATTTATTTTA
Turning to B9, the binding result with Topo IIC [1] was “binds”.

B10: poly(A) (dsDNA)
DNA 1: AAAAAAAAAAAAAAAAAAAAAAA
DNA 2: TTTTTTTTTTTTTTTTTTTTTTT
Turning to B10, the binding result with Topo IIC [1] is “binds”.

B11: Topo II (Giardia lamblia ATCC 50803) (protein)
chain: MAQKAKIQRVTGSEHVLLRPDMYVGSVSAAETFLWLYEPGQGLYYTKANIVPGLCKIFDEIIVNASDNKQRDSDRSAEHKMTYIKCSVDVASGAISVENDGVEGLLHFDEKEKMYLPTLAFGILMTSSNYDDTEQRVTGGRNGYGAKLTNIFSTKFTVLLQENGQVFEQTWTDNMKNTKPPRIEDVRDKKKNFIRFSFTPDYMKFGMTSGLDRDHAAYMMRRAVDVAGCNIGLKLIINGTELKIANFEQYARMVYRSINPEITQFYETSKGDTAQVNTNDSDSDLDIKSAAKAKPKTKRTKKTIETNSLLIPVDDLSKPSDWTHDYLKVIPVNKFWDIGLGYTDSGELVQVSFVNSINTTDGGTHVDAILDLIMSQLNDVLIKSFQQDAKNAKKLTRQQLKSCLVLFIRSLVVNPSFDSQTKISLKTDKAALLRSLGSTQAELATLATQLVKRIQEIRPLWNSLRQASYNQAAKLLTKTDGSKTSQLLGIPKLDDAIAAGTRESSKCTLILTEGDSAKALAVDGISSIEDGKKYYGVFPLRGKVINVRNESIDKVSNNAEITNLKKILGLKQGMDYSTQEARNTLRYGHVMIMTDQDPDGSHIKGLLINLFDTYWNGLARSNKFLDFFITPIVRCTQARNMKTFYTIPEYKKWTQTVTDLPKWNINYYKGLGSSNTTDAKQYFQQIANNRKTLIYNPESASKLKLAFDKKLADDRKTWISGTDPDTYLDLSPTKIDITAFVDKELVLYDIESNQRAIPSLMDGLKPGQRKVLYACFKRNLKTKLKVSQLSGFVSDKAAYHHGEASLNGTIVNMAQSFTGSNNIALLYPAGIFGSRARGGKDSSAPRYISTYLDPLARYLFPEPDDAIMQYKEDDGKVIEPFYYAPILPMVLINGSDGIGTGFSTTIPQFDPLDMLHSIRLRIYGKTTRREKRTLKPFSNGWKGTMTHEYDKSGKFVRWRMTGCFSVVDLKTIQITDLPIGVWTESYREEIETWVKGNEDAGTAKKPATKVSATTKGKAKLKGASGAAKEKPAAKDQLYDSVTGYYKGIHPALMKVIDMSDNNTVNIIVTLSDECARYLIGTSDVDIETCNTAGTARYDNIVKGFKLDGSIRPSNMWLYNERNMLCLYHTPFKIIDAFYAKRLDLYRVRRNNQIIDMDDRSLMLNEKARFIKLIIEDKLNIKNVPRDSVTELLWGKYQFHPSRKHRIILLSHRNLINKRQALKIDEDSERPEEDDDADQRDLEKHLEATVKDLIGPQFFDAINSWSGFTVQDRNECYEYLLRMPISTMTKESYRNLLSSAELIRAEAEKLRNTTVENMWLRDLAAFEAAYEVDRHMEQTKSAETRRLTVTETMIQGKLEESERKYKAMDDRVGDSDNEIEYSTTRDDQGLKIKGEPKPKKEHVPKTAPASKAKVQKPEEGLETAPTEPKRKRPAAAPVDTKKASAKRGKKEESSFTESETSATELDSSVLEDDYSYVSYTYDEDDENGEDDL
As a reminder, the Km is the concentration of substrate that gives half-maximal velocity. For the molecule B11, in data set [3], the Km worked out at 210 µM.

B12: cwp1-90/-46 (dsDNA)
DNA 1: CTGGCTAACAGTCTACAGTCTACAATTTACAGTATACAATCTACA
DNA 2: TGTAGATTGTATACTGTAAATTGTAGACTGTAGACTGTTAGCCAG
On to B12, for which the binding result in the data set with Myb2 (label: 5'-32P for Myb2) was “binds”.
